Experimental findings from PMC11106487 are described below.

Values joined by “and” are separate entries in the source; they are usually repeats but may differ in a detail not shown here. Identical values can stand only once.

In assay [1] the target is GFP-FR (GFP fused to the GPI attachment signal of the folate receptor), expressed in MDCK cells. Briefly: number and brightness (N&B); live polarized MDCK cells, Golgi pool: apical trypsin 25 ug/mL for 25 min to remove the surface pool, untreated (CTR), imaged at the Golgi level.
For assay [2] the target is unchanged. Briefly: number and brightness (N&B); live polarized MDCK cells, plasma membrane pool only: cycloheximide 90 min, then with or without EGTA still in the presence of cycloheximide.
Assay [3] shares this target. Nature of the assay: number and brightness (N&B); live polarized MDCK cells on filters, apical surface, CO2-independent medium pH 7.4; control cells and cells treated with latrunculin A (6 uM, 5 min), jasplakinolide (5 uM, 5 min) or blebbistatin (50 uM, 90 min); also after EGTA followed by calcium replenishment for 3 h; B-values ascribed to oligomer classes by a calibration curve of monomeric, dimeric and trimeric GFP.

Assay [4] addresses GFP-FR, stably expressed in CHO cells. Nature of the assay: number and brightness (N&B); live CHO cells, 2 days in culture, cell surface imaged at the cell periphery; untreated control.

“GFP-FR (GFP fused to the GPI attachment signal of the folate receptor), expressed in MDCK cells” registered a mean brightness (B), Golgi pool, control in assay [1] of 1.2. Further, in assay [2], the mean brightness (B), plasma membrane pool, control worked out at 1.19 and the mean brightness (B), plasma membrane pool, upon EGTA was 1.2. Also, in assay [3], the brightness (B) amounted to 1.21; the brightness (B) upon latrunculin A worked out at 1.23; the mean brightness (B), control of the EGTA experiment came to 1.29; the stoichiometry N was 3 and 4.

In the case of GFP-FR, stably expressed in CHO cells, in assay [4], the brightness (B) was found to be 1.3; the stoichiometry N was 3 and 4.
